Measured values published in the nanobody polyreactivity screen of Harvey et al. (2022).

Test: yeast display, Sf9 membrane polyspecificity reagent, FACS + sequencing; frameworks hold sequencing errors
Summary of the method: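 In a synthetic yeast display library (Saccharomyces cerevisiae BJ5465), nanobody expression was induced with galactose for 36–48 hours. FACS gates were set low and high (top ~1%) using anti-HA fluorescence for expression and streptavidin fluorescence for binding of the Sf9 membrane reagent. Each polyreactivity label is drawn from the gate of origin.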

| Sequence | polyreactivity (PSR sort gate) |
| --- | --- |
| QVQLVESGGGLVQAGGSLRLSCAASGIIFIKYAMGWYRQAPGKERELVAAITSGGSTHYADSVKGRFTISRDNAKNTVYLQMNSLKPEETAVYYCNADILRHVAYFKDRYQAGSYWGQGTQVTVSS | low polyreactivity |
| QVQLVESGGGLVQAGGSIRLTCAASGLIFLVYPMGWYRPAPGKERELVASIRTGRSTSYADSVKGRFTISRDNAKYTVYLQMNSLKPEDTAVYYCAADRGRPNLPGDYWGQGTQVTVSS | low polyreactivity |
| QVQLVESGGVLVQAGGSLRLSCAASGRTLGTYAMGWYRQAPGKERELVAAITHSGGTTYYADSVKGRFTISRDNAKNTVYLQMNSLKPEDTAVYYCAADARFRTVSPMDYWGQGTQVTVSS | low polyreactivity |
| QVQLVESGGGLVQAGGSLRLSCAASGSTIYYNAMGWYRQAPGKERELVARISRSGGSTYADSVKGRFTISRDNAKNTVYLQMNSLKPEDTAVYYCNADAYGTPEFTSYAVRYDYWGQGTQVTVSS | low polyreactivity |
| QVQLVESGGGLDQAGGSLRLSCAASGSIFDYYAMGWYRQAPGKERELVARISYSGGTTYYADSVKGRFTISRDNAKNTVYLQMNSLKPEDTAVYYCNARIPYSWRYGYWGQGTQVTVSS | high polyreactivity |
| QVQLVESGGGLVQAGGSLRLSCAASGSIFWNNAMGWYIQAPGKEREWVAGISSAGSTNYADSVKGRFTISRDNAKNTVYLQMNSLKPEDTAVYYCAASYFRDYVWLRSNVRYYYWGQGTQVTVSS | low polyreactivity |
| QVQLVESGGGLVQAGGSLRLSCAASGSTFSSNAMGWYRQAPGKERELVAAINRRGGTYYADSVKGRFTISRDNAKNTVYLQMNSLKPEDTAVYYCAAASPYHEYDYWGQGTQVTVSS | low polyreactivity |
| QVQLVESGGGLVQAGGSLSLSCAASGSILYINDMGWYRQAPGKERELVAAISWSGDSTIYADSVKGRFTISRDNAKNTVYLQMNSLKPEDTAVYYCNAVWYGGDMDYWGQGTQVTVSS | low polyreactivity |
| QVQLVESGGGLVQAGGSLRLSCAASGFTFHYYAMGWYRQAPGKERELVAAISRGGGNTYYADSVKGRFTISRDNAKNTVYLQMNSLKPEDTAVYYCAADSKYRFSHGLDYWGQGTQVTVSS | high polyreactivity |
| QVQLVESGGGLVQAGGSLRLSCPASGSIVGYYVMGWYRQAPGKERELVAAISWSSGSTYYADSVKGRFTISRDNAKNTVYLQKNSLKPEDTAVYYCNASNVYFWFVTLEFDYWGQGTQVTVSS | low polyreactivity |
| QVQLVDSGGGLVQAGGSLRLSCAASGRTFGYYAMGWYRQAPGKERELVAAISWRGTSTYYADSVKGRFTISRDNAKNTVYLQMNSLKPEDTAVYYCAVGRTVAHRFIAGDYWGQGTQVTVSS | high polyreactivity |
| QVQLVESGGGLVQAGGSLRLSCAASGSIYYNAMGWYRQAPGKERELVAGITWSGGSTYYADSVKGRFTISRDNAKNTVYLQMNSLKPEDTAVYYCAADFVYLGTHYGAYDYWGQGTQVTVSS | low polyreactivity |
| QVQLVESGGGLVQAGGSLCLSCAASGSTLRRYAMGWYRQAPGKERELVAAITYRSGSTYYADSVKGRFTISRDNAKNTVYLQMNSLKPEDTAVYYCAKVGYVSKYWFAGDYWGQGTQVTVSS | high polyreactivity |
| QDQLVESGGGLVQAGGSLRLSCAASGSIFRRNSIGWYRQAPGKERELVAAIRWSSGSTYYADSVKGRFTISRDNAKNTVYLQMNSLKPEDTAVYYCAAAKRAYSYVLHAFYYWGQGTQVTVSS | high polyreactivity |
| QVQLVESGGGLVQAGGSLRLSCAASGSIFVGNGMGWYRQAPGKERELVAAITFRSGSTYYADSVKGRFTISRDNAKNTVYFQMISMKPEDTAVSYCAADEYYQVYAYDYCGQGTQVTVSS | low polyreactivity |
| QVQLVESGGGLVQAGGSLRLSCAASGSTFLHSAMGWYRQAPGKEREFTYYADSVKGRFTISRDNAKNTVYLQMHSLKPEDTAGYYCNAGPYWSPYGDDVGYWGQGTQVTVSS | low polyreactivity |
| QVQLVESGGGLVQAGGSLRLSCAASGFTFTYYAMGWNRQEPGKERELVAAISGNGGSTYYADSVKGRFTISRDNAKNTVYLQMNRLKPEDTAVYYCNALPTSVGRWYRGDYWGQGTLVTVSS | high polyreactivity |
| QVQLVESGGGLVQAGGSLRLSCAASGFTFYRYAMGWYRQAPGKERELVAVITRGGSTNYADSVKGRFTISRDNAKNTVYLQMNSLKPEDTAVYYCAARWFAGDWDYWYDYWGQGTQVTVSS | low polyreactivity |
| QVQLVESGGGLVQAGGSLRLSCAASGFIFPRYAMGWYRQAPGKERELVAAISYSGGSTYYADSVKGRFTISRDNAKNTVYLQMNSLKPEDTAVYYCNTAPWWRTSSDYEYWGQGTQVTVSS | high polyreactivity |
| QVQLVESGGGLVQAGGILLLSCAASGSIFKPYAMGWYTQAPGKERELVAAISKRGGSTSYADSVKGRFTISRDNAKNSVYLQMNSLKPEDTAVYYCAAVAAFSGLSWYDYWGLGTQVTVSS | high polyreactivity |
| QVQLVESGGGLVQAGGSLRLSCAASGFTLLVNAMGWYRQAPGKERELVAAITSGGRTNYADSVKGRFTISRDNAKNTVYLQMNSLKPEDTAVYYCARDWGRKPDDGQQAWYEYWGQGTQVTVSS | low polyreactivity |
| QVQLVESGGGSVQAGGSLRLSCAASGSIFYPYTMGWSRQAPGKERELVAVITGSGGRTYYADSVKGRFTISRDNAKNTVYLQMNSLKPEDTAVYYCNASPFTVRYYKYEYWGQGTQVTVSS | low polyreactivity |

| Sequence | polyreactivity (PSR sort gate) |
| --- | --- |
| QVQLVESGGGLVQAGGSLRLSCAASGIIFGYNAMGLYRQAHGKERELVASIDVSGGITYYADSVKGRFTISRDNAKNTVYLQMNSLKPEDTAVYYCAAAVYGRGSPHYYWGEGTQVTVSS | high polyreactivity |
| QVQLVESGGGLVQAGGSLRLSCAASGGIFLPYAMGWYRQAPGKERELVAGITTSGGSTYYADSVKGRFTISRDNAKNTVYLQMNSLKPEDTAVYYCAKKSSLFKHVVRYDYWGQGTQVTVSS | low polyreactivity |
| QVQLVESGGGLVQAGGSLRLTCAASGRIFGSYAMGWYRQAPGKERELVAAITRRGGSTYYADSVKGRFTISRDNAKNTVYLQMNSLKPEDTAVYYCAPERTSAYDYWGQGTQVTVSS | high polyreactivity |
| QVQLVESGGGLVQAGGSLRVSCAASGRIFVDYAMGWYRQAPGKERELVAAISRRGGSTYYADSVKGRFTISRDNAKNTVYLQMNSLKPEDTAVYYCNALVNSGGGYGATEYDYWGQGTQVTVSS | high polyreactivity |
| QVQLQECGGGLVQAGGSLRLSCAASGNIFDADIMGWYSQAPGKERELVDSVTDGGSTNYADSVKGRFTISRDNAKNTVYLQMNSLKPEHTAVYYCAAIVYPDILTYFDYDYDYFYWGQGTQVTVGS | low polyreactivity |
| QVQLVESGGGLVQAGGSLRVSCAASGRIFTIYAMGWYRQAPGTEREVVAAISDRGTRTYYADSVKGRFTISRDNAKNTVYVQMNSLKPEDTALYYCATDALYTYGYDYWGQGSQVTVSS | low polyreactivity |
| QVQLVESGGGLVQAGGSLRLSCAASGRTIASYAMGWYRQAPGKERELVAAITSGGSTYYADSVKGRFTISRDNAKNTVYLQINSLKPEDTAVYYCARKHAIWRGYDYWGQGNQVTVSS | low polyreactivity |
| QVQLVESGGGLVQAGGSLRLSCAASGRLFGAYGMGWYRQAPRKERELVAAISNGGRTSYADSVKGRFTISRDNAKNTVYLQMNSLKPEDTAVYYCAAVYWPWYGAYDYWGQGTQVTVSS | high polyreactivity |
| QVQLVESVGVLVQAGGSLHLSCAASGSTFRYNAIGWYRQAPGKEREVVAAISKRGGSTYYADSVKGRFTISRDNAKNTVYLQMNSLKPEDTAVYYCAASYPSWSTRGESDYWGQGTQVTVSS | high polyreactivity |
| QVQLVESGGGLVHAGGSLRLSCAASGSILNGYVMGWYRQAPGKERELVGTYYADSVKGRFTISRDNAKNTVYLQMNSLKPEDTAVYYCAADIGDGSEFDYWGLGTQVTVSS | low polyreactivity |
| QVQLVESGGGLVQAGGSLRLSCAASGSIFFPNPLGWYRQAPGKERELVDAISWSGDSSYADSVKGRFTISRDNAKNTVYLQMNSLKPEDTAVYYCAAVYLWWSYEFDYWGQGTQVTVSS | low polyreactivity |
| QVQLGESGGGLVQAGGSLRLSCAASGSIFSDYAMGWYRQAPGKERELVAAIRYRGGRTYYADSVKGRFTISRDNAKNTVYLQMNSLKPEDTAVYYCNADVIRRGGSRYSTGREFDYWGQGTQVTVSS | high polyreactivity |
| QVQLVESGGGLVQAGGSLRLSCAASGSTFYSNAMGWYRQAPGKERELVAGISGSGGSTYYADSVKGRFTISRDNAKNTVYLQMNSLKPEDTAVYYCNARKTRSYFRFDSWGQGTQVTVSS | low polyreactivity |
| QVQLVESGGGLVQAGGSLRLSCAASGRIFNQYGMGWYRPAPGKERELVAAIRSGDSTNYADSVKGRFTISRDNAKNTVELQMNSLKPEDTAVYYCARDRPGDYAGYDYWGQGTQVTVSS | low polyreactivity |
| QVQLVESGGGLVQAGGSLRLSCAASGFTFHKNAMGWYRQAPGKERELVAGISRRAGSTYYADSVKGRFTISRDNAKNTVYLQMNSLKPEDTAVYYCATDRARTGALYYWGQGTQVTVSS | high polyreactivity |
| QVQLVESGGGLVQAGGSLRLSCAASGSIFGAYAMGWYRQAPGKERELVAAITWRGGSTYYADSVKGRFTISRDNAKNTVYLQMNSLKPEDTAVYYCAARYLRPDGDALTRYGYWGQGTQVTVSS | high polyreactivity |
| QVQLVESVGGLVQAGGSLRLSCAASGLTCYGKTMGWYRQAPGKDRELVAAISFDGGNTYADSVKGRFTISRDNAKNTVYLQMNSLKPEDTAVYYDYWGQGNQVTVSS | low polyreactivity |
| QVQLVDSGGGLVQAGVSLRISCAASGIIIRYYGMGWYRQAPGKERELVARIRWTGGSTYYADSVKGRFTISRYNAKNTVYLQMNSLKQEETAVYYCAADIWQYSRIANSHPYDYWGQGTQVTVSS | low polyreactivity |
| QVQLVESGGGLVQAGGSLRLSCAASGSIFRGYTMGGYRQAPGKETELVAAISRSGGSTYYADSVKGRFTISRDNAKNTVYLQMNSLKPEDTAVYYCAADSFRTRAIYDYWGQGTQVTVSS | high polyreactivity |
| QVQLVESGVGLVQAGGSLRLSCADSGSIFVINAMGWYRQASGKERELVATIRARAGSTYYADSVKGRFTISRDNAKNTVYLQMNSLKPEDTAFYYCAARLKSYRVEYWGQGTQVTVSS | high polyreactivity |
| QVQLVESGGGLVQARGSLRLICAASGRTFSYNTMGWYRQAPGKERDLVASITRSGGSTYYSDSVKGRFTISRDNAKNTVYLQMNSLKPEDTAVYYCAADSYPGSTYYDSLDYWGQGTQVTVSS | low polyreactivity |
